These results are taken from PMC11480844 (2024).

B1: H2-Kb / Ed21 (parent complex)
chain 1: AQSVTQPDARVTVSEGASLQLRCKYSYFGTPYLFWYVQYPRQGLQLLLKYYPGDPVVQGVNGFEAEFSKSNSSFHLRKASVHWSDWAVYFCAVSMSGGYKVVFGSGTRLLVSP
chain 2: DSGVVQSPRHIIKEKGGRSVLTCIPISGHSNVVWYQQTLGKELKFLIQHYEKVERDKGFLPSRFSVQQFDDYHSEMNMSALELEDSAMYFCASSPRQTDYTFGSGTRLLVI
chain 3: not shown
chain 4: IQKTPQIQVYSRHPPENGKPNILNCYVTQFHPPHIEIQMLKNGKKIPKVEMSDMSFSKDWSFYILAHTEFTPTETDTYACRVKHDSMAEPKTVYWDRDM
chain 5: SIINFEKL
B2: H2-Kb / Ed5 (parent complex)
chain 1: GDSVTQTEGPVTVSESESLIINCTYSATSIAYPNLFWYVRYPGEGLQLLLKVITAGQKGSSRGFEATYNKETTSFHLQKASVQESDSAVYYCALGSYNQGKLIFGQGTKLSIKP
chain 2: DTTVKQNPRYKLARVGKPVNLICSQTMNHDTMYWYQKKPNQAPKLLLFYYDKILNREADTFEKFQSSRPNNSFCSLYIGSAGLEYSAMYLCASSRRLGASQNTLYFGAGTRLSVL
chain 3: not shown
chain 4: B1 chain 4
chain 5: SIINFEKL
Also: test concentration or dose not given here.

In the first assay the parent is B1. Description: % of reporter cells activated (NFAT-GFP), raw.
Turning to chain 5 I2K, the ratio to parent was determined as 0.906.
For chain 5 I2G, the ratio to parent is 1.
In the case of chain 5 I2S, the ratio to parent came out at 1.01.
On the same count and under the same terms, next, chain 5 I2W: 0.861; chain 5 I2H: 0.926.
Turning to chain 5 I2Y, the ratio to parent turned out to be 0.814.
On the same count and under the same terms, next, chain 5 I2L: 1.02; chain 5 I2D: 0.924.
Same read-out and setting: next, chain 5 I2T: 1.01; chain 5 I2A: 1.04.
Turning to chain 5 I2R, the ratio to parent came out at 0.916.
For chain 5 I2C, the ratio to parent came out at 0.995.
With chain 5 I2F, the ratio to parent is 0.951.
On the same count and under the same terms, to chain 5 I2E belongs 0.964; to chain 5 I2Q, 0.904; to chain 5 I2N, 1.01.
On the same count and under the same terms, to chain 5 I2P belongs 0.975; to chain 5 I2M, 0.976.
As for chain 5 N4T, the ratio to parent amounted to 0.165.
Regarding chain 5 N4C, the ratio to parent was found to be 0.162.
The same measure, in the same setting: next, chain 5 N4I: 0.389; chain 5 N4W: 0.017.
Same read-out and setting: to chain 5 N4E belongs 0.189; to chain 5 N4Y, 0.0148.
On the same count and under the same terms, next, chain 5 N4G: 0.182.
Consider chain 5 N4H, for which the ratio to parent stood at 0.47.
The same measure, in the same setting: next, chain 5 N4P: 0.0248.
Still for that read-out and setting: to chain 5 N4K belongs 0.566; to chain 5 N4V, 0.0259; to chain 5 N4A, 0.498.
On to chain 5 N4Q, for which the ratio to parent is 0.015.
As for chain 5 N4D, the ratio to parent was 0.487.
Consider chain 5 N4S, for which the ratio to parent turned out to be 0.271.
Still for that read-out and setting: next, chain 5 N4M: 0.00791; chain 5 N4R: 0.476; chain 5 N4F: 0.0275.
Take chain 5 F5E: the ratio to parent was 0.856.
Same read-out and setting: to chain 5 F5V belongs 0.909; to chain 5 F5P, 1.03; to chain 5 F5Q, 0.939.
Same read-out and setting: to chain 5 F5H belongs 0.947; to chain 5 F5D, 0.905.
On to chain 5 F5C, for which the ratio to parent worked out at 1.04.
chain 5 F5K: the ratio to parent is 0.952.
Still for that read-out and setting: next, chain 5 F5G: 0.873; chain 5 F5T: 0.964; chain 5 F5A: 1.05.
For chain 5 F5Y, the ratio to parent worked out at 1.05.
chain 5 F5R: the ratio to parent stood at 0.958.
As to chain 5 F5W, the ratio to parent came to 0.866.
Same read-out and setting: next, chain 5 F5L: 1.05.
The same measure, in the same setting: to chain 5 F5M belongs 0.981.
Same read-out and setting: to chain 5 E6Y belongs 0.366.
On to chain 5 E6F, for which the ratio to parent was found to be 0.226.
Same read-out and setting: to chain 5 E6T belongs 0.46; to chain 5 E6W, 0.0831.
Same read-out and setting: next, chain 5 E6N: 0.884; chain 5 E6A: 0.845; chain 5 E6K: 0.949.
Consider chain 5 E6D, for which the ratio to parent turned out to be 0.964.
On the same count and under the same terms, next, chain 5 E6I: 0.0493; chain 5 E6M: 0.593; chain 5 E6P: 0.554.
Consider chain 5 E6G, for which the ratio to parent was 0.785.
As to chain 5 E6C, the ratio to parent stood at 0.0832.
For the variant chain 5 E6L, the ratio to parent came out at 0.329.
Same read-out and setting: next, chain 5 E6S: 0.641; chain 5 E6H: 0.59.
On to chain 5 E6R, for which the ratio to parent came to 0.936.
The same measure, in the same setting: next, chain 5 S1K: 0.664; chain 5 S1P: 0.808.
Turning to chain 5 S1E, the ratio to parent worked out at 0.93.
Still for that read-out and setting: to chain 5 S1Q belongs 0.983.
The same measure, in the same setting: to chain 5 S1R belongs 0.785; to chain 5 S1Y, 0.97; to chain 5 S1I, 0.745.
On the same count and under the same terms, next, chain 5 S1N: 0.724.
With chain 5 S1H, the ratio to parent came to 0.979.
Still for that read-out and setting: to chain 5 S1F belongs 0.805; to chain 5 S1V, 0.9; to chain 5 S1A, 1.02.
On the same count and under the same terms, to chain 5 S1L belongs 0.793; to chain 5 S1D, 0.911; to chain 5 S1W, 0.616.
On to chain 5 S1G, for which the ratio to parent worked out at 0.933.
For chain 5 S1C, the ratio to parent came to 0.604.
Same read-out and setting: next, chain 5 S1M: 0.954; chain 5 I3S: 0.901; chain 5 I3W: 0.869.
On the same count and under the same terms, next, chain 5 I3R: 0.775; chain 5 I3A: 0.872.
Same read-out and setting: to chain 5 I3P belongs 0.927; to chain 5 I3N, 0.961.
Take chain 5 I3C: the ratio to parent is 0.989.
In the case of chain 5 I3D, the ratio to parent stood at 0.575.
The same measure, in the same setting: next, chain 5 I3H: 1.
Same read-out and setting: next, chain 5 I3M: 0.99; chain 5 I3K: 0.851.
On to chain 5 I3Q, for which the ratio to parent came out at 0.902.
On to chain 5 I3L, for which the ratio to parent is 1.03.
On the same count and under the same terms, to chain 5 I3G belongs 0.636; to chain 5 I3Y, 0.966.
Same read-out and setting: to chain 5 I3V belongs 0.872; to chain 5 I3F, 0.869.
The same measure, in the same setting: to chain 5 I3E belongs 0.924; to chain 5 I3T, 0.952; to chain 5 K7E, 0.0818.
Turning to chain 5 K7M, the ratio to parent came out at 0.418.
As for chain 5 K7V, the ratio to parent turned out to be 0.788.
In the case of chain 5 K7R, the ratio to parent was found to be 1.02.
As to chain 5 K7D, the ratio to parent worked out at 0.141.
Same read-out and setting: next, chain 5 K7Q: 0.568; chain 5 K7F: 0.261; chain 5 K7T: 0.752.
Still for that read-out and setting: next, chain 5 K7H: 0.997; chain 5 K7S: 0.785; chain 5 K7G: 0.605.
Still for that read-out and setting: to chain 5 K7C belongs 0.374.
With chain 5 K7P, the ratio to parent was found to be 0.667.
The same measure, in the same setting: next, chain 5 K7Y: 0.745; chain 5 K7I: 0.799.
Consider chain 5 K7W, for which the ratio to parent came to 0.717.
chain 5 K7A: the ratio to parent turned out to be 0.645.
The same measure, in the same setting: to chain 5 K7L belongs 0.785; to chain 5 L8D, 0.785.
Consider chain 5 L8C, for which the ratio to parent came to 0.882.
Same read-out and setting: next, chain 5 L8T: 0.783; chain 5 L8M: 0.887.
Still for that read-out and setting: to chain 5 L8R belongs 0.997.
Turning to chain 5 L8Y, the ratio to parent was 0.976.
Same read-out and setting: next, chain 5 L8F: 0.826; chain 5 L8Q: 0.894; chain 5 L8W: 0.734.
Same read-out and setting: to chain 5 L8P belongs 0.996; to chain 5 L8H, 1.03; to chain 5 L8K, 0.901.
Still for that read-out and setting: next, chain 5 L8I: 0.859.
On to chain 5 L8N, for which the ratio to parent is 0.888.
Still for that read-out and setting: to chain 5 L8S belongs 0.78.
Regarding chain 5 L8A, the ratio to parent was 0.819.
The same measure, in the same setting: to chain 5 L8E belongs 0.685.
Still for that read-out and setting: to chain 5 L8V belongs 0.686.

Variants of B2 are the subject of the next assay. Description: % of reporter cells activated (NFAT-GFP), raw.
As to chain 5 L8F, the ratio to parent worked out at 0.694.
Still for that read-out and setting: to chain 5 K7W belongs 0.543; to chain 5 K7Q, 0.648; to chain 5 S1A, 0.322.
On to chain 5 N4V, for which the ratio to parent was 0.0109.
Regarding chain 5 I3Q, the ratio to parent was found to be 0.162.
Same read-out and setting: to chain 5 F5D belongs 0.92.
Same read-out and setting: next, chain 5 I2M: 0.917.
